Assay results: patent publication US6365161

Tests used:
[1] = molecular target: human FcγRI (CD64) on cells (human) (UniProt P12314); experiment: flow cytometry, fluorescein-conjugated antibody on peripheral blood monocytes
[2] = molecular target: soluble fusion protein consisting of the extracellular domain of human FcγRI and human IgM heavy chain (sFcγRI-µ) (human) (UniProt P12314); experiment: ELISA on captured FcγRI/IgM heavy chain fusion protein, against a nonspecific human IgG1
soluble fusion protein consisting of the extracellular domain of human FcγRI and human IgM heavy chain (sFcγRI-µ) (human), sequence (P12314 other isoform, or with tags, fused parts or gaps limits assumed): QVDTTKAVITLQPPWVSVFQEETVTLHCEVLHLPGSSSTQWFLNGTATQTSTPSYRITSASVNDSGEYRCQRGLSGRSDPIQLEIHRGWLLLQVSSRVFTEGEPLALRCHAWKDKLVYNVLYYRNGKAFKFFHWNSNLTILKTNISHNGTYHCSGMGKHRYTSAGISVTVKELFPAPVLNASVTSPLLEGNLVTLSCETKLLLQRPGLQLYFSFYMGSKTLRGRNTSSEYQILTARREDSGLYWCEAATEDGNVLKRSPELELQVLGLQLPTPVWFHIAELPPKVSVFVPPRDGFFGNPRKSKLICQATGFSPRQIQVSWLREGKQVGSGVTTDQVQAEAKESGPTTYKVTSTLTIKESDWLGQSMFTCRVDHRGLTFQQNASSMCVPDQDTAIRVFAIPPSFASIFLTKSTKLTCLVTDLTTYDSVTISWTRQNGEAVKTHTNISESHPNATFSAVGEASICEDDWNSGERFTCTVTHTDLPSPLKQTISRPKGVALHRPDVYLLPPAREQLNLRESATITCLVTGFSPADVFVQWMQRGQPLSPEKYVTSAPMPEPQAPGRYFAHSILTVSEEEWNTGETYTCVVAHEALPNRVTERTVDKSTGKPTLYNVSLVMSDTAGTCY

human FcγRI (CD64) on cells (human), sequence (P12314 16-374): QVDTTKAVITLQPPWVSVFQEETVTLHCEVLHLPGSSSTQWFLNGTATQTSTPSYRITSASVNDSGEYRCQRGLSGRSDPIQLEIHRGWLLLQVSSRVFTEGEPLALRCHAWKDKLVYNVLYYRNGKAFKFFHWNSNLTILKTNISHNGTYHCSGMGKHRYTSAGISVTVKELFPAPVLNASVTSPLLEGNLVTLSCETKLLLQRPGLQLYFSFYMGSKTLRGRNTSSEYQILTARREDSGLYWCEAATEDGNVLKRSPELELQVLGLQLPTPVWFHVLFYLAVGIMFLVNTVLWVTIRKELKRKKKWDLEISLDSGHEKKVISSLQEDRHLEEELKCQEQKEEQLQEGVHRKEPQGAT

Antibody sites per cell (antibody sites per cell) [1]: 10500 | percent of binding via the Fv portion [2]: > 95%
B1: humanized anti-FcγRI antibody H22 (KOL VH/REI Vκ mAb) (antibody, from a related filing, V domains shown)
VH: EVQLVESGGGVVQPGRSLRLSCSSSGFIFSDNYMYWVRQAPGKGLEWVATISDGGSYTYYPDSVKGRFTISRDNSKNTLFLQMDSLRPEDTGVYFCARGYYRYEGAMDYWGQGTPVTVSS
VL: DIQLTQSPSSLSASVGDRVTITCKSSQSVLYSSNQKNYLAWYQQKPGKAPKLLIYWASTRESGVPSRFSGSGSGTDFTFTISSLQPEDIATYYCHQYLSSWTFGQGTKVEIK
